Molecular target: T1, PCSK-9 in human serum samples (human, UniProt Q8NBP7 31-692, limits assumed)
T1 construct: Endogenous PCSK-9 in clinical serum of human subjects, detected with a goat anti-human PCSK-9 polyclonal antibody; also called proprotein convertase subtilisin/kexin type 9; serum free PCSK-9
Experiment: ELISA, ADI-10087 coated on a microplate, serum PCSK-9 captured, detected with goat anti-human PCSK-9 polyclonal antibody
Method: A corresponding TMB substrate of HRP enzyme was then added, the color intensity of the TMB substrate was proportional to the content of PCSK-9, and the concentration of PCSK-9 in clinical serum could be detected by OD values at 450 nm or 620 nm using a microplate reader.

T1 sequence (Q8NBP7 31-692 limits assumed): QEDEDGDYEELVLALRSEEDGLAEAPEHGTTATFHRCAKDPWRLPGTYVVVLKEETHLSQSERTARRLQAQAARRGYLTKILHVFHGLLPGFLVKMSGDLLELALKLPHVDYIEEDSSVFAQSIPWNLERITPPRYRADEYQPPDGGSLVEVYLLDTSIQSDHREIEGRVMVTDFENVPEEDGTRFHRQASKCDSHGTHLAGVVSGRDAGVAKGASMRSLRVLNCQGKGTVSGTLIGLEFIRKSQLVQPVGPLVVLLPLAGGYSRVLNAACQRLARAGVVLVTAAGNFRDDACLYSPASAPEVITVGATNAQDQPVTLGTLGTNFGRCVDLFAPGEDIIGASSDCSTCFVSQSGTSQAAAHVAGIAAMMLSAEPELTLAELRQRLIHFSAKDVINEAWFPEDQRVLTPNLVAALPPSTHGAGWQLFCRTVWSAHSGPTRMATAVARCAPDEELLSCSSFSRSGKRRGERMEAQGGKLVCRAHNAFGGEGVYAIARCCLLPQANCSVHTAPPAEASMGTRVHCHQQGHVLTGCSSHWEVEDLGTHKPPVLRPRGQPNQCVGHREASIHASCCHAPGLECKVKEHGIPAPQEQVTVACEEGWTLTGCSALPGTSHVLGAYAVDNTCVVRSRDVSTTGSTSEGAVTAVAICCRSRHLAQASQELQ

- binding result: binds
B1: ADI-10087 (antibody, V domains shown)
VH: QLQLQESGPGLVKPSETLSLTCTVSGGSISSASYYWSWIRQPPGKGLEWIGSINYRGSTYYNPSLKSRVTISVDTSKNQFSLKLSSVTAADTAVYYCARENSGVVPAAGPNWFGPWGQGTLVTVSS
VL: EIVLTQSPATLSLSPGERATLSCRASQSVSSYLAWYQQKPGQAPRLLIYDASNRATGIPARFSGSGSGTDFTLTISSLEPEDFAVYYCQQRRNWFTFGGGTKVEIKR
modifications: In Example 10 the antibody carries a ruthenium label, and in Example 9 biotin and ruthenium labels. The labelling sites are not stated and the letters do not carry them.
notes: The antibody was obtained from PCT/CN2017/118050; also called anti-PCSK9 antibody; test drug
